Literature values, collected in article PMC5347372.
pKd: −log10 of the molar value.

Target: alpha-factor (Saccharomyces cerevisiae) (UniProt P01149)

In the case of Ste2 (from UniProt D6VTK4), the pKd is given as 8.15.
